In publication PMC9482650, “Quantitative fragmentomics allow affinity mapping of interactomes” (Nature Communications, 2022):

T1: LIN7C, Q9NUP9
T1 sequence (Q9NUP9 88-185, limits assumed, looked up): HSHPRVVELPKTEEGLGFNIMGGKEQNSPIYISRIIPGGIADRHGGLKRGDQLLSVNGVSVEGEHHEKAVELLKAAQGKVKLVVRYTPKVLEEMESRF

T2: PTPN13_1, Q12923
T2 sequence (Q12923 1088-1188, limits assumed, looked up): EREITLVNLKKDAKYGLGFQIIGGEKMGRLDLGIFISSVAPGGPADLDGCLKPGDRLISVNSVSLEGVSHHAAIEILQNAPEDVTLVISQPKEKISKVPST

T3: DLG3_2, Q92796
T3 sequence (Q92796 221-321, limits assumed, looked up): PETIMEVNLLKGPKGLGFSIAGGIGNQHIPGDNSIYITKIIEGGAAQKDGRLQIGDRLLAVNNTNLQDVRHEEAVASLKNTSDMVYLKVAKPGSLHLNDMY

T4: PDZD2_2, O15018
T4 sequence (O15018 329-429, limits assumed, looked up): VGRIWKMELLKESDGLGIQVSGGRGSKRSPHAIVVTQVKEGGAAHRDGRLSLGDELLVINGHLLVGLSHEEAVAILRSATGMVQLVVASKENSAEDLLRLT

T5: RADIL, Q96JH8
T5 sequence (Q96JH8 971-1071, limits assumed, looked up): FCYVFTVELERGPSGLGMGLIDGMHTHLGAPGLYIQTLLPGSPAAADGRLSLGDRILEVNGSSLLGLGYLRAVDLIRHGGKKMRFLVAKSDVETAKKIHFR

T6: MPP7, Q5T2T1
T6 sequence (Q5T2T1 134-230, limits assumed, looked up): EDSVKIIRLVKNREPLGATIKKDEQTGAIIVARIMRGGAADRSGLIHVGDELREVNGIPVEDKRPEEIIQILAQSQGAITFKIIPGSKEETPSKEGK

T7: DFNB31_3, Q9P202
T7 sequence (Q9P202 811-907, limits assumed, looked up): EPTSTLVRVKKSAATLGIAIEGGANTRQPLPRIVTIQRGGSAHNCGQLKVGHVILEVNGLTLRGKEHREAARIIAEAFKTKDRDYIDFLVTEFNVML

T8: HTRA4, P83105
T8 sequence (P83105 378-476, limits assumed, looked up): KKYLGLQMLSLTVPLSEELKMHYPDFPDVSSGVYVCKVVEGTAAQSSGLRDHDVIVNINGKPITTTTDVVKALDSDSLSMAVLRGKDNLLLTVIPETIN

T9: DLG3_3, Q92796
T9 sequence (Q92796 374-475, limits assumed, looked up): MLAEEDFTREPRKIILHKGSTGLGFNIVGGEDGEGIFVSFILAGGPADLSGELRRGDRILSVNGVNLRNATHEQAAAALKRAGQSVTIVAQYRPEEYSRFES

T10: DFNB31_2, Q9P202
T10 sequence (Q9P202 274-371, limits assumed, looked up): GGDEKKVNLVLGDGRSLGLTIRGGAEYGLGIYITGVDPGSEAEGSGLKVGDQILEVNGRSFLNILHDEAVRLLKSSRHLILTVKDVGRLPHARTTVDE

T11: TX1BP3, O14907
T11 sequence (O14907 10-122, limits assumed, looked up): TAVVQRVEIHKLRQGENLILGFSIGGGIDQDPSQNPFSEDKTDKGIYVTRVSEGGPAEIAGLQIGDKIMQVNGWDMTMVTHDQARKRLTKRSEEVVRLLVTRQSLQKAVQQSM


Assays:
Test in all cases: holdup assay
Parameters in all cases: key: below the threshold = too weak to quantify, mostly under pKd 3.1 to 4
Conditions in all cases: plain residues with an end cap or a label only (N-terminal biotin on a linker: ado-ado)
LIN7C, Q9NUP9 = target: T1, LIN7C, Q9NUP9
HTRA2, O43464 = target: HTRA2, O43464
FRMPD2_3, Q68DX3 = target: FRMPD2_3, Q68DX3
PTPN13_1, Q12923 = target: T2, PTPN13_1, Q12923
LAP2, Q96RT1 = target: LAP2, Q96RT1
DLG3_2, Q92796 = target: T3, DLG3_2, Q92796
PDZD2_2, O15018 = target: T4, PDZD2_2, O15018
NOS1, P29475 = target: NOS1, P29475
RADIL, Q96JH8 = target: T5, RADIL, Q96JH8
Inadl_1, Q8NI35 = target: Inadl_1, Q8NI35
MPP7, Q5T2T1 = target: T6, MPP7, Q5T2T1
SCRIB_3, Q14160 = target: SCRIB_3, Q14160
MAST1, Q9Y2H9 = target: MAST1, Q9Y2H9
DFNB31_3, Q9P202 = target: T7, DFNB31_3, Q9P202
Inadl_4, Q8NI35 = target: Inadl_4, Q8NI35
HTRA4, P83105 = target: T8, HTRA4, P83105
MAGI2_5, Q86UL8 = target: MAGI2_5, Q86UL8
DLG3_3, Q92796 = target: T9, DLG3_3, Q92796
MAGI2_2, Q86UL8 = target: MAGI2_2, Q86UL8
Inadl_6, Q8NI35 = target: Inadl_6, Q8NI35
GRIP2_4, Q9C0E4 = target: GRIP2_4, Q9C0E4
PICK1, Q9NRD5 = target: PICK1, Q9NRD5
DFNB31_2, Q9P202 = target: T10, DFNB31_2, Q9P202
TX1BP3, O14907 = target: T11, TX1BP3, O14907
Inadl_5, Q8NI35 = target: Inadl_5, Q8NI35
IL16_3, Q14005 = target: IL16_3, Q14005
DLG4_3, P78352 = target: DLG4_3, P78352
Sequence of DLG4_3, P78352 (P78352 306-403): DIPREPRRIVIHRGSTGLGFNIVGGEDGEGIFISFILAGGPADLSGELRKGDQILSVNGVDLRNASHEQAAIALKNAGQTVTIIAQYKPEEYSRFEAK

Sequence of GRIP2_4, Q9C0E4 (Q9C0E4 446-548): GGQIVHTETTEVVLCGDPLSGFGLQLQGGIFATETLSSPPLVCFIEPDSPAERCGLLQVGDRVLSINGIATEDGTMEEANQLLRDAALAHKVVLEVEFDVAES
Sequence of MAGI2_5, Q86UL8 (Q86UL8 915-1017): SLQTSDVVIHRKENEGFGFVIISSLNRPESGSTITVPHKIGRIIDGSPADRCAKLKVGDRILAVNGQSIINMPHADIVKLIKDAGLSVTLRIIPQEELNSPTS
Sequence of Inadl_1, Q8NI35 (Q8NI35 113-229): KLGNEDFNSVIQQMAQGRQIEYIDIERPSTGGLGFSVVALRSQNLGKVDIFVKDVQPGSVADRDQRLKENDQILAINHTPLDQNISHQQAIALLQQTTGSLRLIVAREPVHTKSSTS
Sequence of Inadl_5, Q8NI35 (Q8NI35 673-780): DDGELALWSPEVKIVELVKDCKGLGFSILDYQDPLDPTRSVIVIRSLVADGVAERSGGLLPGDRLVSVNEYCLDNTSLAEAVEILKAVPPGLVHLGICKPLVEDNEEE
Sequence of MAST1, Q9Y2H9 (Q9Y2H9 962-1065): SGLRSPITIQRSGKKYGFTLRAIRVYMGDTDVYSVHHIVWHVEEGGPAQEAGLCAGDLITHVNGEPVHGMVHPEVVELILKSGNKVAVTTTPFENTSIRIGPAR
Sequence of LAP2, Q96RT1 (Q96RT1 other isoform, or with tags, fused parts or gaps): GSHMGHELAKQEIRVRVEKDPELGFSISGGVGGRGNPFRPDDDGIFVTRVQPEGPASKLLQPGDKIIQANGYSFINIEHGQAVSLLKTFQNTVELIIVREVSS
Sequence of IL16_3, Q14005 (Q14005 1107-1207): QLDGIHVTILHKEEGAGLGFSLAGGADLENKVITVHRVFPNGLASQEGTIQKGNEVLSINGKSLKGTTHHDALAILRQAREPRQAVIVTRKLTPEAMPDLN
Sequence of Inadl_4, Q8NI35 (Q8NI35 547-651): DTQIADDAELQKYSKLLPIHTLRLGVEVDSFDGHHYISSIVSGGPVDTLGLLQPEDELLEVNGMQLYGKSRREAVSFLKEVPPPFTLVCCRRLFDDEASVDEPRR
Sequence of FRMPD2_3, Q68DX3 (Q68DX3 1073-1166): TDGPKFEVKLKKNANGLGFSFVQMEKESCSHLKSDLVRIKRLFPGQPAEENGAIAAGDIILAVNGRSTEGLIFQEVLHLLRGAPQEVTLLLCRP
Sequence of NOS1, P29475 (P29475 9-101): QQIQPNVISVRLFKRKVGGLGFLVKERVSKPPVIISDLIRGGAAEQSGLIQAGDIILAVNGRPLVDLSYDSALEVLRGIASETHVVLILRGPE
Sequence of HTRA2, O43464 (O43464 355-458): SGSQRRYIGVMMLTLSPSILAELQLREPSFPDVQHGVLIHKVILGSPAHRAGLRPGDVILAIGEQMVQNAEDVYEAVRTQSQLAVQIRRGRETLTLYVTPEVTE
Sequence of Inadl_6, Q8NI35 (Q8NI35 1058-1167): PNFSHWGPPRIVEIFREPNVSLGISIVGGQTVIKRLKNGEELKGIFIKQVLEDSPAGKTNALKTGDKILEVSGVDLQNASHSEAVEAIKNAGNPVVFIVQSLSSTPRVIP
Sequence of MAGI2_2, Q86UL8 (Q86UL8 410-522): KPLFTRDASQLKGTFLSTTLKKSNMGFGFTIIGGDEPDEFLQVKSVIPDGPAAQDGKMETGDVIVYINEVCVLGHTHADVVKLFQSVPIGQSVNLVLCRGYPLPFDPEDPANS
Sequence of PICK1, Q9NRD5 (Q9NRD5 17-115): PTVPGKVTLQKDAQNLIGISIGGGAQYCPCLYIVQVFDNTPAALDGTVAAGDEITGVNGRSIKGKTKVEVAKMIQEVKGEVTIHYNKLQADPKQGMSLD
Sequence of SCRIB_3, Q14160 (Q14160 999-1103): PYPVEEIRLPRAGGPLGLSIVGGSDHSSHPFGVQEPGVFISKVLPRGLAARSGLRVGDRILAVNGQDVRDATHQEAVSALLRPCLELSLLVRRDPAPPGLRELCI

| Binder | pKd (LIN7C, Q9NUP9) | pKd (HTRA2, O43464) | pKd (FRMPD2_3, Q68DX3) | pKd (PTPN13_1, Q12923) | pKd (LAP2, Q96RT1) | pKd (DLG3_2, Q92796) | pKd (PDZD2_2, O15018) | pKd (NOS1, P29475) | pKd (RADIL, Q96JH8) | pKd (Inadl_1, Q8NI35) | pKd (MPP7, Q5T2T1) | pKd (SCRIB_3, Q14160) | pKd (MAST1, Q9Y2H9) | pKd (DFNB31_3, Q9P202) | pKd (Inadl_4, Q8NI35) | pKd (HTRA4, P83105) | pKd (MAGI2_5, Q86UL8) | pKd (DLG3_3, Q92796) | pKd (MAGI2_2, Q86UL8) | pKd (Inadl_6, Q8NI35) | further results |
| --- | --- | --- | --- | --- | --- | --- | --- | --- | --- | --- | --- | --- | --- | --- | --- | --- | --- | --- | --- | --- | --- |
| ADRDHASDQL [CTBP1, Q13363] | 3.96 | below the threshold | below the threshold | below the threshold | below the threshold | below the threshold | below the threshold | below the threshold | below the threshold | below the threshold | below the threshold | below the threshold | below the threshold | 3.97 | below the threshold | 3.73 | below the threshold | below the threshold | below the threshold | below the threshold | pKd (GRIP2_4, Q9C0E4): below the threshold; pKd (PICK1, Q9NRD5): 4.13; pKd (DFNB31_2, Q9P202): below the threshold; pKd (TX1BP3, O14907): below the threshold; pKd (Inadl_5, Q8NI35): below the threshold; pKd (IL16_3, Q14005): below the threshold; pKd (DLG4_3, P78352): below the threshold |
| GSSSKEGTSV [RRBP1, Q9P2E9] | below the threshold | below the threshold | below the threshold | below the threshold | 3.65 | 3.78 | 4.82 | 3.72 | below the threshold | below the threshold | below the threshold | 4.23 | 4.32 | 3.96 | below the threshold | 3.9 | below the threshold | 3.71 | 4 | below the threshold | pKd (GRIP2_4, Q9C0E4): below the threshold; pKd (PICK1, Q9NRD5): 4.14; pKd (DFNB31_2, Q9P202): below the threshold; pKd (TX1BP3, O14907): below the threshold; pKd (Inadl_5, Q8NI35): below the threshold; pKd (IL16_3, Q14005): below the threshold; pKd (DLG4_3, P78352): 3.64 |
